Laboratory results taken from publication PMC5841360 (2018).

B1: his6-cortactin, wild type (purified) [not stated] / GST-GluA2 C-terminal tail [not stated] (parent complex)
chain 1: not shown
chain 2: EFCYKSRAEAKRMKVAKNPQNINPSSSQNSQNFATYKEGYNVYGIESVKI

Variants of: B1
Assay: GST pulldown, Western blot quantification; Input is 0.2% of offered protein; n = 3-6; read off a plot

| percent of parent | Variant |
| --- | --- |
| ~76 | chain 2 K17A, chain 2 N18A |
| ~22 | chain 2 K11A |
| ~83 | chain 2 P19A, chain 2 Q20A |
| ~55 | chain 2 R12A, chain 2 M13A |
| ~37 | chain 2 K14A, chain 2 V15A |
